Series [1] relates to O=C(O)[C@H]1O[C@@H](Oc2ccc([N+](=O)[O-])cc2)[C@H](O)[C@@H](O)[C@@H]1O. In words: purified protein. The following applies: 37°C, at the enzyme's optimal pH (not given).
Another series relates to T1, BoGUS L2.
T1 construct: gene GUS; GH2, loop 2 class
In words: p-nitrophenol release, absorbance […] nm, Michaelis-Menten fit. The format is biochemical, Bacteroides ovatus. The following applies: 50 mM HEPES, 50 mM NaCl, pH 6.5, 37°C.

Substrate in the series “purified protein”: O=C(O)[C@H]1O[C@@H](Oc2ccc([N+](=O)[O-])cc2)[C@H](O)[C@@H](O)[C@@H]1O
Description: purified protein. The following applies: 37°C, at the enzyme's optimal pH (not given). The series is classed as biochemical, Bacteroides uniformis.

The Km is the substrate concentration at which the rate is half of its maximum. For orientation: kcat means the number of substrate molecules converted per active site and unit of time at saturation.

Turning to “BfGUS mL1 (Bacteroides fragilis NCTC 9343)”, in series [1], the Km is 460 ± 60 µM and the turnover number (kcat) came to 23 ± 1 s⁻¹.

For the molecule `O=C(O)[C@H]1O[C@@H](Oc2ccc([N+](=O)[O-])cc2)[C@H](O)[C@@H](O)[C@@H]1O` [PNPG, p-nitrophenyl-glucuronide], the Michaelis constant (Km) with BoGUS L2 stood at 930 ± 70 µM.

B1: BuGUS L2 (Bacteroides uniformis str. 3978 T3 ii) (protein)
chain: QRQTQTINDSWKFLKGECTAAADSAFDDSKWTSIHLPHTWNTDAYTEKDYYRGTGWYRRQLTLPQGWKEKQIILRLDAAGKSATIYINGKNVGEHAGGYTACSFNITPFLSFDTPNTLAVCVDNARQDIAPISGDFTFFGGIYRDVWLTAVPNQHFNLTNHGSDGLFISTPQVSEEQATLSIRGEVKNDAPEKATLELTHTIYRPDGTLLQTLKKNIQLKAGETYAFSNEATPVLKPELWTPETPRLYRVETTLRNRKTKTLLDQSNHYTAFRWFRFDGDEGFFLNGKPYKLRGICRHQDQKPIGPALTDEMHRRDFLLMKEMGANFIRISHYPQDDALLEMCDKLGMLAWEEIPIIDIVPNTPGYGDNCERNLREMIRQHYNHPSIITWGYMNEILLVTQRKYKTEAELKPVLERTLALANRLERVLKEEDSTRISTMAFHGSNSYNETGLSKITDIVGWNLYQGWYGGDLTGFEKFLAQQHQNHPTHPMIVSEYGAGSDKRLHSLHPRAFDFSIEYQQKYLEHYLPVLEDTPYICGGTHWNFIDFSSALRDESMPRINNKGLVYADRTPKDVYHYYQAAWRKDIPVLHIASRDWTDRAGVQQGNAPVYLPVKIYTNLSEVELFIDGISLGKQKTENYTATFEVPFSNRNPFLFAQGNYQGKTVQDGLRINFTPIPACLDANNLKGLELAVNVGSQCFFTSDESQLTWLPDQPYAAGSWGYIGGKEGTAQTEIQNTADGPLFQTLRNEIEGYRFDAPQGVYEIELLFTDIFRRNAGIAYQLDRNGQQENRESTFGISINGEVVEESLSPCKESGYFRALRKKYYITNDKEYIDIRFHSTSGTCFLNGIKLRNIY
notes: GH2, loop 2 class
On to B1, for which, in “purified protein”, the Michaelis-Menten constant (Km) came to 520 ± 60 µM and the catalytic constant (kcat) amounted to 24 ± 1 s⁻¹.

Values taken from paper PMC6712278, “Mouse Gut Microbiome-Encoded β-Glucuronidases Identified Using Metagenome Analysis Guided by Protein Structure” (mSystems, 2019).
